T1: endogenous human DLL3 on NCI-H82 cells (human, UniProt Q9NYJ7 27-618)
T1 sequence (looked up): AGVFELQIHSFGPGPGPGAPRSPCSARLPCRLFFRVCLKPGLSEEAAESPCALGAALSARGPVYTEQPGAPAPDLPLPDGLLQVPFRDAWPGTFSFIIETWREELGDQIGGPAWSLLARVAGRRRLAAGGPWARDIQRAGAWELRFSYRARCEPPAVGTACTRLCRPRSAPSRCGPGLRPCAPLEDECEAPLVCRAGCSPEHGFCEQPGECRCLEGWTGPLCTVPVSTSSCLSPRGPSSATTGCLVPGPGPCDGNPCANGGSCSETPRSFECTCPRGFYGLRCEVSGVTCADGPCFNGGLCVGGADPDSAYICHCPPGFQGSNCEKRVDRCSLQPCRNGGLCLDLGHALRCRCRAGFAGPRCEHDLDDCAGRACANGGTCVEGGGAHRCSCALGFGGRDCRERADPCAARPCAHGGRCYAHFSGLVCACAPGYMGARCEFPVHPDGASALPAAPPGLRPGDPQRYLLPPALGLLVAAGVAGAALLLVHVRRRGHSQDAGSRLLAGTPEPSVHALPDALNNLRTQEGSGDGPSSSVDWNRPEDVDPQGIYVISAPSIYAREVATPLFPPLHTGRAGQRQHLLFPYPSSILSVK

T2: full-length human DLL3 on transfected HEK293 cells (human, UniProt Q9NYJ7 27-618)
T2 construct: also called 293 hDLL3
T2 sequence: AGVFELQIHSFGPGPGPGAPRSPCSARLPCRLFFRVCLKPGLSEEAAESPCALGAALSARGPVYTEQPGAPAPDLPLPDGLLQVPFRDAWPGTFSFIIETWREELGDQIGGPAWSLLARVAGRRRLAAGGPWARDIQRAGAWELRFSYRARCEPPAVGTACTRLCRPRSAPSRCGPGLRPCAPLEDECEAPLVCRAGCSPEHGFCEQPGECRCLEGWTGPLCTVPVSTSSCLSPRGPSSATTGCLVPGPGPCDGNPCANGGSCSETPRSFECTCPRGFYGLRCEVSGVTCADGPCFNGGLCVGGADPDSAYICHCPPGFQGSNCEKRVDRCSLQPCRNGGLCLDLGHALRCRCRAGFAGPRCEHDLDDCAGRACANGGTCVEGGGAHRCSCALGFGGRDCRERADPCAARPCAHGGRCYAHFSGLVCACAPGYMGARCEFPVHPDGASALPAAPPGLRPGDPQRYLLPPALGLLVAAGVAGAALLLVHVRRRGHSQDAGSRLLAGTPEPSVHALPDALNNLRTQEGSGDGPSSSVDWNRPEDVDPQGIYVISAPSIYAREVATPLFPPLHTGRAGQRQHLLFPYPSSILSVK

T3: full-length mouse DLL3 on transfected HEK293 cells (mouse, UniProt O88516 33-584)
T3 construct: also called 293 mDLL3
T3 sequence: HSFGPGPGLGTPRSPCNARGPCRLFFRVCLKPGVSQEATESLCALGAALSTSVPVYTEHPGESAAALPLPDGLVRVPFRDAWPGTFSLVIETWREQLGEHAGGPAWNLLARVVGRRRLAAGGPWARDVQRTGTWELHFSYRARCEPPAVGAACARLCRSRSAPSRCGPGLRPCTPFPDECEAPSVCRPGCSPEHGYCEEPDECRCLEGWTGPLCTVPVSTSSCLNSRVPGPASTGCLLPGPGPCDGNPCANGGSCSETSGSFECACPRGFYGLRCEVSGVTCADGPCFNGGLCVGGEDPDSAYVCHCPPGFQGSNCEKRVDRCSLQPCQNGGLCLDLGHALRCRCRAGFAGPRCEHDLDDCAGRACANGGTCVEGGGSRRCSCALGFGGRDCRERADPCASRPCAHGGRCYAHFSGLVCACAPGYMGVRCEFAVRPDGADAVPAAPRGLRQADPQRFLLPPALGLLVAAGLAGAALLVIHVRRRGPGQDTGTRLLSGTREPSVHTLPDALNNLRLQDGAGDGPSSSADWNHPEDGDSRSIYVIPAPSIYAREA


Legend:
[1] = target: T1, endogenous human DLL3 on NCI-H82 cells; experiment: cell-based or functional assay
[2] = target: T1, endogenous human DLL3 on NCI-H82 cells; experiment: cell-based or functional assay; remark: listed apart in the source
[3] = target: T1, endogenous human DLL3 on NCI-H82 cells; experiment: cell-based or functional assay; remark: listed apart in the source
[4] = target: T1, endogenous human DLL3 on NCI-H82 cells; experiment: flow cytometry, NCI-H82 cells (endogenous DLL3), mAb 10 µg/ml
Procedure: (§1) The four monoclonal antibodies (6-G23-F, 2-C8-A, 7-I1-B and 10-O18-A) were tested for their ability to bind to mouse and cynomolgous DLL3 as well as endogenous human DLL3 by flow cytometry. For this purpose, HEK293 cells were transfected with plasmid DNA encoding full-length human, mouse or cynomolgous DLL3 and used in the experiment. Briefly 106 transfected HEK293 cells or NCI-H82 primary cells were added in FACS buffer PBS 0.5% BSA to the wells of a 96 well U bottom plate and purified monoclonal added to 10 μg/ml. After 30 minutes incubation at 4° C. the cells were washed 3 times in FACS buffer and incubated with a PE labelled F(ab)2 anti-mouse IgG H and L 2nd stage. After another 30 minutes incubation at 4° C. the cells were washed three times in FACS buffer and analyzed on the flow cytometer. Data are presented at the ratio of the Mean Fluorescent Intensity for the monoclonal divided by the background staining with the 2nd stage. As shown in the Table below, all of the monoclonal antibodies cross reacted with cynomolgous DLL3 and detected endogenous DLL3 on NCI H82 cells but only 6-G23-F and 7-I1-B bound to mouse DLL3.

[5] = target: T2, full-length human DLL3 on transfected …; experiment: flow cytometry, HEK293 cells transfected with full-length human DLL3, mAb 10 µg/ml
Procedure: as §1

[6] = target: T3, full-length mouse DLL3 on transfected …; experiment: flow cytometry, HEK293 cells transfected with full-length mouse DLL3, mAb 10 µg/ml
Procedure: as §1

[7] = target: T4, full-length cynomolgous DLL3 on transfected HEK293 cells (cynomolgous); experiment: flow cytometry, HEK293 cells transfected with full-length cynomolgous DLL3, mAb 10 µg/ml
T4 construct: whole, on cells; also called 293 cyno DLL3
Procedure: as §1

Binder	MFI Ratio (4° C. plate / 37° C. plate), 4/37 internalization assay on NCI-H82 cells [1]	Dy light Dy658 Fluorescence (% of the Control Reference Monoclonal Antibody), quenching internalization assay on NCI-H82 cells [2]	FAB ZAP % SC16 Max Killing, NCI-H82 cells [3]	ratio of Mean Fluorescent Intensity (monoclonal / background staining with 2nd stage) [4]	ratio of Mean Fluorescent Intensity (monoclonal / background staining with 2nd stage) [5]	ratio of Mean Fluorescent Intensity (monoclonal / background staining with 2nd stage) [6]	ratio of Mean Fluorescent Intensity (monoclonal / background staining with 2nd stage) [7]
6-G23-F (antibody, V domains shown, Hybridoma monoclonal from Ablexis AlivaMAb Kappa mice (human immunoglobulin repertoire); the antibody was captured on anti-mouse Fc sensors and detected with anti-mouse IgG / anti-mouse IgG1 reagents; It is not the recombinant human IgG1 form H6-G23-F; also called 6-G23-F (10 µg/ml)) VH: QVQLVQSGAEVKKPGASVKVSCKASGYTFTSYYIHWVRQAPGQGLEWMGIIDPSDGSTNYAQKFQGRVTMTRDTSTSTVYMELSSLRSEDTAVYYCARDREYNYYGLDVWGQGTTVTVSS VL: not shown	1.67	76.5%	94%	11.1	6.33	3.97	13.1
7-I1-B (antibody, V domains shown, Hybridoma monoclonal from Ablexis AlivaMAb Kappa mice; captured and detected with anti-mouse Fc / anti-mouse IgG reagents; also called 7-I1-B (10 µg/ml)) VH: EVQLVESGGGLVKPGGSLRLSCAASGFTFSNTWMSWVRQAPGKGLEWVGRIKSKSDGGTTDYAAPVKGRFTISRDDSKNTLYLQMNSLKTEDTAVYYCTQYYWNSFDYWGQGTLVTVSS VL: not shown	1.68	70.1%	97%	19.2	9.74	4.7	18.7
2-C8-A (antibody, V domains shown, Hybridoma monoclonal from Ablexis AlivaMAb Kappa mice; captured and detected with anti-mouse Fc / anti-mouse IgG reagents; It is not the recombinant human IgG1 form H2-C8-A; also called 2-C8-A (10 µg/ml)) VH: EVQLVESGGGLVQPGGSQRLSCAASGFTFSSYWMNWVRQAPGKGLEWVANIKEDGSEKYYVDSVKGRFTISRDNAKNSLYLQMNSLRAEDTAVYYCARDPGWAPFDYWGQGTLVTVSS VL: DIQMSQSPSSLSASVGDRVTITCRASQGISNYLAWFQQKPGKAPKSLIYAASSLQSGVPSKFSGSGSGTDFTLAISSLQPEDFATYYCQQYNSFPYTFGQGTTLEIK	1.76	62.9%	89%	11.9	7.71	1.5	15
10-O18-A (antibody, V domains shown, Hybridoma monoclonal from Ablexis AlivaMAb Kappa mice; captured and detected with anti-mouse Fc / anti-mouse IgG reagents; It is not the recombinant human IgG1 form H10-O18-A; also called 10-O18-A (10 µg/ml)) VH: QVQLQESGPGLVKPSETLSLTCTVSGGSINSYYWSWIRQPPGKGLEWIGYIFYSGITNYNPSLKSRVTISLDTSKNQFSLKLSSVTAADTAVYYCARIGVAGFYFDYWGQGTLVTVSS VL: not shown	1.56			9.4	4.74	0.99	9.85

From patent US20240115721A1 (Memorial Sloan Kettering, published 2024)
